# From the supplement of paper PMC9732359
# ± gives the uncertainty stated by the source.
# Assay: protein stability index of a GFP-peptide fusion (yeast GPS) (PSI 1-4); higher = more stable; sorted into four equal gates, so the index is relative within each strain
# Outline: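 Sequencing reads from sorted gates were used to score each peptide. The library consisted of tiled 17-residue yeast protein peptides fused downstream of GFP on a Cherry-expressing plasmid, pooled and carried in yeast. Mid-log cultures in leucine-free medium were split into four equal gates by GFP/Cherry ratio, and each gate's plasmids were PCR-amplified and Illumina-sequenced. The protein stability index adds up, over all gates, the read frequency multiplied by the gate number.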
Sequence,protein stability index (doa10∆),protein stability index (pdr5∆),protein stability index (san1∆),protein stability index (ubr1∆)
HKKIKVAQPDSLRETNT [SIR2],3.33 ± 0.13,3.25 ± 0.11,2.6 ± 0.092,3.2 ± 0.053
LRSRSFKSTESNISDEK [YMR129W/POM152],,,2.88 ± 0.27,
LQGISTLRPRQYATVSK [RPL34A],2.59 ± 0.13,2.75 ± 0.13,,
SFHVQKKTCSSCGYPSA [RPL37B],1.86 ± 0.08,2.18 ± 0.076,1.86 ± 0.12,2.19 ± 0.059
SVVSMSNDVLKPETPKG [SIR2],3.01 ± 0.073,3.51 ± 0.11,3.25 ± 0.062,2.96 ± 0.052
DTPEGEACGLVKNLALM [RET1],2.14 ± 0.098,2.01 ± 0.13,3.21 ± 0.1,1.71 ± 0.28
SAGKGISSSAIPYSRNA [RPS13],2.61 ± 0.037,2.58 ± 0.041,2.36 ± 0.048,2.21 ± 0.029
IYYDSYIHLAYSRSVDK [SSN2],2.71 ± 0.13,2.78 ± 0.14,2.89 ± 0.11,3.26 ± 0.088
NSIRAREVENSVSLLNS [SMC1],2.55 ± 0.064,2.78 ± 0.06,3.09 ± 0.071,3.08 ± 0.069
PKNSKTPQSKGFVRNSF [RPO31],3.17 ± 0.15,3.03 ± 0.14,2.92 ± 0.12,3.18 ± 0.068
LGQYVQAHTLYNSVRPF [PRE10],2.74 ± 0.1,2.87 ± 0.099,2.78 ± 0.11,2.65 ± 0.053
ILDPQVTRFTTWNGSPF [YJL039C/NUP192],1.26 ± 0.09,2.03 ± 0.12,1.51 ± 0.17,2.56 ± 0.12
RQPANTKIGAKRIHSVR [RPS8A],3.08 ± 0.076,3.26 ± 0.075,2.74 ± 0.07,3.04 ± 0.076
QSYGGRPYGVGLLIIGY [PRE5],2.96 ± 0.078,3.01 ± 0.067,2.83 ± 0.07,2.56 ± 0.071
EQISNNSNQQQNPKLFQ [SIN4],2.96 ± 0.062,2.67 ± 0.045,3.13 ± 0.062,2.95 ± 0.052
QQQDQPEQSEQPEQHQD [RPN10],3 ± 0.052,3.12 ± 0.053,2.85 ± 0.046,3.24 ± 0.059
VTLASILTTAVGLVSPS [RPN1],1.98 ± 0.13,1.55 ± 0.081,2.25 ± 0.19,2.85 ± 0.087
LIRNVGTNTYRLGEWSK [POP1],1.9 ± 0.28,1.29 ± 0.22,1.12 ± 0.28,
QNDFLFSVGESLSVVAG [ECM29],2.61 ± 0.065,3.08 ± 0.12,2.92 ± 0.11,2.71 ± 0.061
LSLTAFTKNEEKLLKEL [ITC1],2.24 ± 0.081,2.29 ± 0.072,2.29 ± 0.08,2.44 ± 0.26
LDDLVVLKKKNIQKKQP [RRP6],1.44 ± 0.079,1.38 ± 0.061,2.08 ± 0.12,2.34 ± 0.14
RAYRIIRAHQTELTHHL [QCR7],3.03 ± 0.11,3.34 ± 0.081,3.01 ± 0.07,2.96 ± 0.064
GSVMSASVEIVFHDPDH [SMC3],2.12 ± 0.091,2.53 ± 0.071,2.4 ± 0.084,2.55 ± 0.061
HQQQLQQPHYIQRTRER [DSN1],2.95 ± 0.055,3.08 ± 0.042,2.92 ± 0.037,2.84 ± 0.042
AHKLKKSLDSIPMSKTI [FAS2],3 ± 0.083,3.01 ± 0.078,3.01 ± 0.058,2.8 ± 0.083
DIPPPAIMKPYYLWTGK [RPO31],2.74 ± 0.068,2.77 ± 0.075,2.9 ± 0.074,2.79 ± 0.047
STTQEILEFITAAQVAN [RPC34],2.65 ± 0.1,1.71 ± 0.056,1.9 ± 0.088,1.19 ± 0.048

Sequence,protein stability index (doa10∆),protein stability index (pdr5∆),protein stability index (san1∆),protein stability index (ubr1∆)
AKEVYKIHQQLLFKARL [GAL11],,3.18 ± 0.18,,2.84 ± 0.25
TKVNNQLIKVAVHNGGR [RPL9A],1.92 ± 0.074,1.52 ± 0.06,1.78 ± 0.086,2.4 ± 0.029
PGMPNMPGMPNMPGMPK [SRP54],3.37 ± 0.15,3.22 ± 0.095,3.21 ± 0.25,3.3 ± 0.071
AFSYEQAQLRIDDKTQN [DIS3],3.32 ± 0.21,2.81 ± 0.14,2.87 ± 0.12,2.25 ± 0.24
ELSDKEIYTVEDRPPEY [ISW2],3.34 ± 0.13,3.45 ± 0.15,3.33 ± 0.17,3.42 ± 0.12
NVMLEKIKDNKEKIKNN [RPT5],2.78 ± 0.12,2.94 ± 0.087,2.55 ± 0.099,2.72 ± 0.094
DIWQSRDQGNDSLNDDL [YIL149C/MLP2],3.53 ± 0.28,,3.65 ± 0.17,3.76 ± 0.14
SYRGVDLEKLLEMSTED [RPS15],2.76 ± 0.14,2.86 ± 0.12,2.27 ± 0.2,3.19 ± 0.083
VRYEEKRELKQLLEKAP [BRR2],1.86 ± 0.093,2.35 ± 0.084,1.89 ± 0.18,2.4 ± 0.12
RSEEEVTKLNVLVDEIK [YIL149C/MLP2],3.42 ± 0.15,3.5 ± 0.11,3.24 ± 0.059,3.36 ± 0.082
DDNDVPGPLPDTDSKPS [YLR018C/POM34],2.9 ± 0.12,2.98 ± 0.084,2.76 ± 0.11,2.38 ± 0.13
GIRWELISRLCPNSTGA [RPT1],2.04 ± 0.047,2.25 ± 0.05,2.12 ± 0.076,2.19 ± 0.038
EDEMMHEEDQKTNIIEK [RPN12],3.26 ± 0.1,3.09 ± 0.12,2.58 ± 0.15,2.85 ± 0.13
NIVKQNEGIDLDTYRER [SMC2],3.13 ± 0.13,3.51 ± 0.12,3.24 ± 0.079,3.41 ± 0.086
GFGRKGKAKGDIPGVRF [RPS23A],3.19 ± 0.14,3.23 ± 0.13,3.42 ± 0.052,3.22 ± 0.094
KTRGPFHFRAPSRIFYK [RPL16A],2.99 ± 0.08,2.6 ± 0.062,2.56 ± 0.061,2.77 ± 0.057
IDTSKNLENMSIQDTST [YCG1],2.79 ± 0.046,2.94 ± 0.041,2.71 ± 0.044,2.68 ± 0.041
IVRDLDRPGSKFHKREV [RPL3],3.07 ± 0.14,3.44 ± 0.28,2.92 ± 0.3,3.14 ± 0.16
GLESLLNIGLGAVGLKD [YCS4],2.77 ± 0.1,2.61 ± 0.15,2.89 ± 0.13,2.68 ± 0.065
VIKRLEASTVPWGDYLQ [BRR2],1.63 ± 0.15,1.24 ± 0.11,1.54 ± 0.11,1.35 ± 0.11
HDTLNNEIANSIIQSKQ [BRR2],2.76 ± 0.051,2.95 ± 0.064,2.88 ± 0.058,2.88 ± 0.052
SMCGFEVRILPRQRMEE [PRP8],2.29 ± 0.057,1.87 ± 0.053,2.23 ± 0.063,2.24 ± 0.049
RFNVVKVSAAAGKANKQ [RPS11A],1.44 ± 0.068,1.38 ± 0.087,2.92 ± 0.18,2.22 ± 0.067
KNMFEKKASKVTVDADI [ISW2],2.44 ± 0.063,2.87 ± 0.059,2.83 ± 0.055,2.77 ± 0.054
GCLVKREDLNKAEYVDQ [RPO31],,3.13 ± 0.21,,
GKTLAFVIPILIKMSRS [PRP28],1.38 ± 0.071,1.62 ± 0.079,1.22 ± 0.19,
NHGGSLGKYDLTVIEKL [SRP68],,,3.53 ± 0.14,3.41 ± 0.29
